Columns and labels:
JAK2 [1] = target: T1, JAK2 (Homo sapiens, UniProt O60674); assay: ELISA binding of JAK2 to immobilized βc peptides; parameters: Y918N clone error corrected to Tyr
Protocol: βc peptides corresponding to the proposed JAK2 binding domain (Table 1) were serially diluted and bound 16 hours at room temperature to streptavidin coated 96-well plates (Boehringer-Mannheim, Indianapolis, Ind.) and blocked at 37° with 1% fetal bovine serum in PBS. JAK2 protein was serially diluted on the plate and allowed to bind for 1 hour at room temperature. Plates were washed between incubations with ELISA wash (PBS with 0.04% TWEEN 20). Detection was via anti-FLAG antibody (10 μg/ml, Kodak, New Haven, Conn.) followed by anti-mouse Ig conjugated to peroxidase (1:5000 dilution, Boehringer Mannheim) and 1 mg/ml 2,2'-azinobis(3-ethylbenzthiazolinesulfonic acid) (Sigma), 0.003% H2 O2, 28 mM citric acid, 44 mM Na2 HPO4.
The ELISA assay worked best when the biotinylated βc peptides were immobilized on a streptavidin 96-well plate and the JAK2 was allowed to bind. A dual titration of βc peptides vs. JAK2 was performed (FIG. 24). Peptide 1 [SEQ ID NO:11] (FIG. 24 A) and peptide 2 [SEQ ID NO:12] […] Because 0.4 μM peptide was calculated to saturate the number of biotin binding sites in each well, it was expected that the amount of JAK2 binding should saturate at this quantity of peptide. […] (FIGS. 24 C and D) but peptides 5 and 6 [SEQ ID NOS:15 and 16]

JAK2 [2] = target: T1, JAK2; assay: SPA: binding of 3H-JAK2 to βc peptides on streptavidin-coated beads; parameters: NJAK2 = N-terminal 294 residues
Protocol: Cells were lysed by dounce homogenization (20 strokes) in 1X phosphate buffered saline (PBS), pH 7.5 at 4 C. […] For some experiments, the JAK2 protein (0.15 mg/ml), aliquoted into 7 equivalent tubes, was then subjected to ultracentrifugation in an Airfuge using an A-110 rotor at an average of 164,000×g for a period of 6 hours at ambient temperature. At zero time, and at each subsequent hour thereafter, a tube of JAK2 was removed for analyses (ELISA, SDS polyacrylamide gel electrophoresis, and Western blotting).
(§1) Three different labeling reactions were done using ^3 H-N-succinimidyl propionate (^3 H-NSP, Amersham Life Sciences, Arlington Heights, Ill.). One reaction was done using 0.5 mg of purified JAK2 in 0.1 M borate buffer, pH 8.5, with a reaction volume of 150 μl and an incubation time of one hour on ice with dried 1 mCi of ^3 H-NSP (toluene was removed using a stream of nitrogen). […] Another reaction was done using the buffer 0.1 M sodium phosphate, pH 8.0, and a similar volume as before. One milligram of JAK2 in 1.2 ml of phosphate buffer was incubated for three hours on ice. […] A third reaction was done using 2.5 mg of purified JAK2 in 0.1 m sodium phosphate, pH 8.0, and 2.5 ml volume. It was incubated with 5 mCi of dried ^3 H-NSP on ice for 2 hours. […] All three products were separated from unincorporated label using PD-10 columns (Pharmacia Biotech, Uppsala, Sweden) pre-equilibrated with 20 mM Tris, pH 8.0, 0.15 M NaCl.
(§2) Triplicate reactions were done for each data point. The buffer used in all the assays was 35 mM sodium phosphate, 150 mM NaCl, pH 8.0, 10% glycerol. Biotinylated peptides were allowed to bind to streptavidin-coated SPA beads (Amersham Life Sciences, Arlington Heights, Ill., catalog # RPNQ0006) with either less than saturating peptide or excess peptide. […] Under less than saturating conditions, beads and 40 pmole peptide were added to the assay plate well and incubated for one hour with gentle shaking on a Titer plate shaker (Lab-Line Instruments, Inc., Melrose Park, Ill.) at 600 rpm and not washed. […] The plates were then read on a MicroBeta (Wallac) set to read scintillation due to tritium.
(§3) Either ^3 H-JAK2 or ^3 H-NJAK2 was added to the wells and, after incubation, the signals measured. […] A competition reaction was also done by adding 5 to 10-fold excess unlabeled JAK2 in those reactions.

[3] = target: NJAK2 (N-terminal portion of JAK2) (Homo sapiens, UniProt O60674); assay: SPA: binding of 3H-NJAK2 (N-terminal JAK2) to βc peptides on streptavidin-coated beads; conditions: less than saturating peptide, 40 pmole per reaction, FIG. 12B
NJAK2 (N-terminal portion of JAK2), sequence (O60674 1-294 S277G): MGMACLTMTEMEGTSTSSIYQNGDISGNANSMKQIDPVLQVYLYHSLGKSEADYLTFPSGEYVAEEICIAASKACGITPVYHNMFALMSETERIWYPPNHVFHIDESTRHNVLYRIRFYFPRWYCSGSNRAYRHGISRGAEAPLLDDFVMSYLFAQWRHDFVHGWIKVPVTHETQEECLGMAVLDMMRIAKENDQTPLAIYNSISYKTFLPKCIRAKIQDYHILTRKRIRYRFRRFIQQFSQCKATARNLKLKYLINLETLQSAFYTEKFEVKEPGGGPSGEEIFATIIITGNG
Protocol: as §1, §2, §3

T1 sequence (O60674 3-1132): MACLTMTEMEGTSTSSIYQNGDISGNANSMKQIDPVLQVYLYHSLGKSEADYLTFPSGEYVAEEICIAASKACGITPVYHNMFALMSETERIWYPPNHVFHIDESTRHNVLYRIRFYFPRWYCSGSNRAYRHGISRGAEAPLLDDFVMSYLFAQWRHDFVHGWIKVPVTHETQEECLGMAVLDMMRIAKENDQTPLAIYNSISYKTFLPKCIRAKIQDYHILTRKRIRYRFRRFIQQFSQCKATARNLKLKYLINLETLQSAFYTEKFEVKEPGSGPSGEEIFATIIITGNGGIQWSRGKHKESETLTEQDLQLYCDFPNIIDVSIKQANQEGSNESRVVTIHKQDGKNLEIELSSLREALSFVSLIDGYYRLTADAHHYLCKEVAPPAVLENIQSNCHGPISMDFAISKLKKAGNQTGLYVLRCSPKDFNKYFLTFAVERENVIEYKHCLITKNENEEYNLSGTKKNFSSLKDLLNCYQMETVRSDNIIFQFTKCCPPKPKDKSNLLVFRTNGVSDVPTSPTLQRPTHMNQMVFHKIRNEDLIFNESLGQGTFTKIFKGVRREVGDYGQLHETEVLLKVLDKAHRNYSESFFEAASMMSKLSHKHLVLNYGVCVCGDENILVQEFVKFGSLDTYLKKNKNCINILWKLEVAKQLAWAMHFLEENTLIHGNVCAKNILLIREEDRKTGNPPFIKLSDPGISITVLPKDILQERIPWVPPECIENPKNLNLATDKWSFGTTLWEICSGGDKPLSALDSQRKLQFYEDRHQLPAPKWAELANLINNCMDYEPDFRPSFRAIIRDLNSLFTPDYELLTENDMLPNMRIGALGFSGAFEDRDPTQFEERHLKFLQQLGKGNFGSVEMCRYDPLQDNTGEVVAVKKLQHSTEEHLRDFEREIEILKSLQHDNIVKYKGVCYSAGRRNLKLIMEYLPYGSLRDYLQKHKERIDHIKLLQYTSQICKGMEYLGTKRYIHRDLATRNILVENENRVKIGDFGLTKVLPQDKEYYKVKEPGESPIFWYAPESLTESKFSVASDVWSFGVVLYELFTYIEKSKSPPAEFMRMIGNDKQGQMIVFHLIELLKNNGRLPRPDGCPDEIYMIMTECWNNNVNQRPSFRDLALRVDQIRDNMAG

suitability for the ELISA (JAK2 [1]): appear optimal
binding in the SPA, comparison of peptides (JAK2 [2]): binds better than peptide 3
suitability in the SPA (JAK2 [2]): two most optimal
signal-to-noise ratio (JAK2 [2]; 40 pmole (0.17 μg) peptide per reaction, without optimization): 4.5
signal to noise ratio (JAK2 [2]; 5.5 nM JAK2, κ-casein present, FIG. 17B): 14
signal-to-noise ratio (JAK2 [2]; BSA 0.1 mg/ml or 0.5 mg/ml (either concentration), FIG. 16): 5
signal-to-noise ratio (JAK2 [2]; BSA experiment, no additions, FIG. 16): 4
amount of JAK2 at which binding reaches saturation (JAK2 [2]; binding curve, peptide 4, FIG. 17A): about 40 pmole
apparent Kd (JAK2 [2]; binding curve, varying labeled JAK2, FIG. 17A): very low apparent Kd
signal-to-noise ratio (JAK2 [2]; excess peptide, no κ-casein, FIG. 15): 10
signal-to-noise ratio (JAK2 [2]; excess peptide, κ-casein 1 mg/ml during peptide binding to beads, FIG. 15): 35
strength of binding (linear increase with JAK2) (JAK2 [2]; less than saturating JAK2, FIG. 17B): very strong
activity profile, peptide and labeled JAK2 mixed prior to adding beads (JAK2 [2]; mixed one hour before beads, FIG. 13): same activity profile
Sequence: GIYGYRLRRKWEEKIPNPSKSHLFQNGSAELWP [peptide 4, βc peptide, N-terminal truncation]
activity profile in binding 3H-JAK2 (signal) (JAK2 [2]; less than saturating peptide, 40 pmole per reaction, 3H-JAK2, FIG. 12A): peptide 4>peptide 3>peptide 5>peptide 6>peptides 1 and 2
overall signals and signal-to-noise ratios, peptide and labeled JAK2 mixed prior to adding beads (JAK2 [2]; mixed one hour before beads, versus peptide bound to bead first, FIG. 13): lower overall signals and signal-to-noise ratios
activity profile in binding 3H-NJAK2 (signal) [3]: peptide 4>peptide 3>peptide 5>peptide 6>peptides 1 and 2

Source: patent publication US6187552A, “Method for identifying inhibitors of JAK2/cytokine receptor binding” (Pharmacia & Upjohn Company, priority 1998, dated 2001)
